In article PMC11698074 (Science Advances, 2025):

Key:
[1] = target: T1, His-GFP-Klp2 (S. pombe, UniProt Q9US03 1-817); test: pull-down
T1 sequence: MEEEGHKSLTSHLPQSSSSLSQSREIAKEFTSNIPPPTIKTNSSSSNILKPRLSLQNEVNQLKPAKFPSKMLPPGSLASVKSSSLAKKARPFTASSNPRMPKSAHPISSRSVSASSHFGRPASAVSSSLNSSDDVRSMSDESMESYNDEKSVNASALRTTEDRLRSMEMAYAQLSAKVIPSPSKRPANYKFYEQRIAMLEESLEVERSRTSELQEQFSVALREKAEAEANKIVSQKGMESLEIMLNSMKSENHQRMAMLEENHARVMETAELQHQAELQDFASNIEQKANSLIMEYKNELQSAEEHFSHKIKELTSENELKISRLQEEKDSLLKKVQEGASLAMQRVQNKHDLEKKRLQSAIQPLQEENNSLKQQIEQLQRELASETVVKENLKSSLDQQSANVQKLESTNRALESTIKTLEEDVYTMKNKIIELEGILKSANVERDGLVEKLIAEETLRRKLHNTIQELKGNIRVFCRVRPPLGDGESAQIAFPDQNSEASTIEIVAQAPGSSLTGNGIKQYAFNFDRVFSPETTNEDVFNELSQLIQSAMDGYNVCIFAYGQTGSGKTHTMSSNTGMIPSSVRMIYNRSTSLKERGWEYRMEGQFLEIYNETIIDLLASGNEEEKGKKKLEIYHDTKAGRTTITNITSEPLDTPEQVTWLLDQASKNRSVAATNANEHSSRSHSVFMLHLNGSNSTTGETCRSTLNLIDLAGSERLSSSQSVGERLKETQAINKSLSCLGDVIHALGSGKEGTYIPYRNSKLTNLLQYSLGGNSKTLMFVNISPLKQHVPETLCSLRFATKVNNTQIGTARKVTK

[2] = target: T2, StrepII-GFP-Klp2 (S. pombe, UniProt Q9US03 1-817); test: TIRF microscopy of purified proteins on microtubules
T2 sequence: T1 sequence

B1: GST-Rsp1 (natural protein)
chain: MARTAFHDEFVDYYTILGAESTSSYVEIRQQYLKLVLRYHPDRNPGREAEVLPQFQLIQKAHEVLKDPKLRELFDQRRLLEAGRPDGVLRFRPKKSGPKNDISTKVASKVSVTMATKFAEKKKKQDRENVDSKDNNITNFSLHRSFSASGKMEKNNSFKEVSTSKSYISSGYLHPKTSPIFKKNGYATENVVDPISSSPRFKGPNYNKFNAKLYLESLREKRRTYTPLSEISNGLNSNGVENSSITKSSPRSSSSSNNERFKDTSEESIIFTSPNTPEHPSVYQTDITPEIKLEHSDNNSPSKPEIPFRHPTSKPLPPKPLSRSKSSSLSRNQTRSQLNDLSAENDSTSNSTEYDDQLQSILRSLAIEGDDDEVAKVLPKPPSVPTIQAPIPPEAPRNLTNASVDSYLNSFEMYQRRWSSYSIIYTQYAFQWQIFKNKCFQLDLMNTPGQSRLIDNWKEGSQAIQLFYAYEQMHLRALEELQSLKESLFASFGI
**Q.** Does B1 bind [1]?
**A.** Result: binds

B2: Rsp1-mCherry-StrepII (natural protein)
chain: B1 chain
**Q.** Does B2 bind [2]?
**A.** Result: binds
